In patent publication US20140235820A1, “METHODS AND COMPOSITIONS FOR MODULATING THE Wnt PATHWAY” (Genentech, Inc., priority 2010, published 2014):
Non-standard residues stand in square brackets, D forms with d. NMeI = CC[C@H](C)[C@H](NC)C(=O)O; NMeK = CN[C@@H](CCCCN)C(=O)O; NMeS = CN[C@@H](CO)C(=O)O

B1: Ac-NSIKGY-am (peptide)
peptide: Ac-NSIKGY-NH2
notes: also called minimized analogue of the Dkk1 peptide; Lys parent
B2: Ac-NSIKGY-am with an Nα-methyl amino acid at the S position (peptide)
peptide: Ac-N[NMeS]IKGY-NH2
SMILES: CC[C@H](C)[C@H](NC(=O)[C@H](CO)N(C)C(=O)[C@H](CC(N)=O)NC(C)=O)C(=O)N[C@@H](CCCCN)C(=O)NCC(=O)N[C@@H](Cc1ccc(O)cc1)C(N)=O
B3: Ac-NSIKGY-am with an Nα-methyl amino acid at the I position (peptide)
peptide: Ac-NS[NMeI]KGY-NH2
SMILES: CC[C@H](C)[C@@H](C(=O)N[C@@H](CCCCN)C(=O)NCC(=O)N[C@@H](Cc1ccc(O)cc1)C(N)=O)N(C)C(=O)[C@H](CO)NC(=O)[C@H](CC(N)=O)NC(C)=O
B4: Ac-NSIKGY-am with an Nα-methyl amino acid at the K position (peptide)
peptide: Ac-NSI[NMeK]GY-NH2
SMILES: CC[C@H](C)[C@H](NC(=O)[C@H](CO)NC(=O)[C@H](CC(N)=O)NC(C)=O)C(=O)N(C)[C@@H](CCCCN)C(=O)NCC(=O)N[C@@H](Cc1ccc(O)cc1)C(N)=O

Molecular target: T1, human LRP6 construct E1 (amino acids A20-D325) (human, UniProt O75581 20-325)
T1 construct: range 20-325; In the Fab crystal E1 arose from E1E2 degraded beyond Arg 335; residues Ala20 to Lys324 were traced; also called LRP6 E1; E1 domain
T1 sequence (looked up): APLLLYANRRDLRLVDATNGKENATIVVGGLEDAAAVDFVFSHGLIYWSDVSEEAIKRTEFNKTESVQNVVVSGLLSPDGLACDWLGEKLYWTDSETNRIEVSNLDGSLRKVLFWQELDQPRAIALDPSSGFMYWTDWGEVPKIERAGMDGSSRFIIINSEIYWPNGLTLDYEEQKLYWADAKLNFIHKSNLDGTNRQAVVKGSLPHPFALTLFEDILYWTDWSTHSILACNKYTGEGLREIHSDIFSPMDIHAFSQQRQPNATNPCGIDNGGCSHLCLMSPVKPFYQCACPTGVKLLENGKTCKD
Test: synthetic peptides, competition IC50 (FIG. 18)

Binder	binding result
B1	binds
Ac-NSEKGY-NH2 [Ac-NSIKGY-am with Glu in place of Ile]	no binding
Ac-QSIKGY-NH2 [Ac-NSIKGY-am with Gln in place of Asn]	no binding
B2	no binding
B3	no binding
B4	no binding
